# Test results reported in patent US20100256070A1.
# B1: mouse granzyme B (protein)
# chain: IIGGHEVKPHSRPYMALLSIKDQQPEAICGGFLIREDFVLTAAHCEGSIINVTLGAHNIKEQEKTQQVIPMVKCIPHPDYNPKTFSNDIMLLKLKSKAKRTRAVRPLNLPRRNVNVKPGDVCYVAGWGRMAPMGKYSNTLQEVELTVQKDRECESYFKNRYNKTNQICAGDPKTKRASFRGDSGGPLVCKKVAAGIVSYGYKDGSPPRAFTKVSSFLSWIKKTMKSS
# Target: Diphtheria toxin anti-CD5 ScFv fusion protein bearing a granzyme B cleavage sequence
protein,measurement,value
B1,in vitro cleavage by granzyme B (gel),only a small fraction of DT and PEA fusion proteins was cleaved
